Data published in patent US20160304625A1.

Biological target: mIgM proximal domain peptide conjugated to keyhole limpet hemocyanin (human)
Experiment: ELISA direct binding, mIgM-PD-KLH

Control mAb (antibody)
ELISA reading: 0.1
